From paper PMC12622350

Target: T1, NikR (Helicobacter pylori 26695) (UniProt O25896)
T1 sequence: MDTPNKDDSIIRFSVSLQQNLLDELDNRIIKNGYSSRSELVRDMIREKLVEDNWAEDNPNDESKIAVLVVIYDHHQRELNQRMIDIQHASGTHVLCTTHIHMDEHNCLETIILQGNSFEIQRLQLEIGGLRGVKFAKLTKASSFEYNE
Assay: EMSA

Row | Sequence | binding
1 | TAGCAATGTTTTGATTTACTAAGATTAACAGAAGCGTTCATTAACTAATTATTATTTAAAATGAATTAGTGTTATATCTTTGAAGCGCTATAAAATCGTTATTAGAAGTGCGTTTAATAC (double strand) [OPhp0073] | binds
2 | TTGGGTTGATTTAACTCAAGCAAATTTTCTTCAATCCTAACAAATTTGGCTGCAAATTAAAAAATTTAAGCTTTTTTCTTTTTTTTTGATTTAATACTAGGTATAATTTTAATTCCACCT (double strand) [Probe-flgR 1] | binds
3 | TAAGCTTTTTTCTTTTTTTTTGATTTAATACTAGGTATAATTTTAATTCCACCTAACAAGGAAAAGCTATGAAAGTAACACAAGGCATTGCTAACGACTTTTTTGCCCTAACAAACACGA (double strand) [Probe-flgR 2] | binds
